According to US11054425B2, “System and method for identification and characterization of transglutaminase species” (Roche Sequencing Solutions, Inc., priority 2014, dated 2021):

Columns and labels:
[1] = test system: KalbTG and S. mobaraensis MTG; assay: dual site-specific labeling with Cy3 and Cy5 labels; assay type: biochemical; conditions: KalbTG + Cy3 label 30 min, then S. mobaraensis MTG + Cy5 label 15 min
Method: Turning to FIG. 6C, the high sequence specificity of KalbTG was used to conjugate a 6 kDa Cy3 label to the YRYRQ (SEQ ID NO:1) site of a 7 kDa substrate peptide comprising both the KalbTG and S. mobaraensis MTG glutamine-containing motifs. The reaction was run for 30 minutes to saturate the YRYRQ (SEQ ID NO:1) site. Analysis by SDS-PAGE confirmed that the label was integrated at a single site. The substrate peptide was subsequently incubated for 15 minutes with S. mobaraensis MTG and a 6 kDa Cy5 label. […] Accordingly, KalbTG may be useful for the industrial-scale synthesis of complex protein conjugates of interest in therapeutic or diagnostic applications.
For the orthogonal labeling experiment, a molecule containing both KalbTG and MTG Q-tags was chemically synthesized to have the primary chemical structure:
(§1) If not noted otherwise, labeling reactions were performed for 15 minutes at 37° C. in the presence of 72 μM substrate protein, 720 μM label peptide and 1 μM transglutaminase in 200 mM MOPS pH 7.2 and 1 mM EDTA. […] Samples were taken between incubation steps and analyzed by SDS-PAGE, in-gel fluorescence (BioRad ChemiDoc gel documentation system, Cy3 and Cy5 LED and filter sets). […] The mixture was filtered (0.2 μm spin filter) and analyzed by LC-MS with UV detection at 214 nm and 305 nm.

[2] = differential scanning calorimetry (DSC); assay type: physicochemical; conditions: purified and activated enzyme
Method: Initial screening at the 5 ml scale provided clear evidence that proteins with the anticipated electrophoretic mobility of full length KalbTG fusions were expressed, and that a fusion with tandem SlyD chaperones (Scholz, et al. 2005. Journal of Molecular Biology 345(5): 1229-1241) yielded the highest amount of soluble protein among all the constructs tested (FIG. 3A). The expression of this construct was further optimized by screening different incubation times and temperatures, Isopropyl β-D-1-thiogalactopyranoside (IPTG) inducer concentrations and induction times, media types and volumes. With reference to FIGS. 3B and 3C, the modular nature of the chosen fusion construct afforded the SlyD fusion protein, the pro-enzyme, and the activated enzyme by a combination of sequential purification and proteolytic cleavage steps. The expression construct 200 included, starting from N-terminus, two sequential SlyD chaperones 202, a factor Xa protease cleavage site (C1), the KalbTG pro-peptide 204, a trypsin protease cleavage site (C2) the KalbTG enzyme 206, and an 8×-histidine tag 208. The SlyD chaperones 202 are cleaved from the expression construct 200 with a factor Xa protease 210. […] The melting point of the purified and activated enzyme was determined to be 48.9° C. using differential scanning calorimetry (DSC). […]

[3] = test system: Z-[GGGYRYRQGGGG (SEQ ID NO:75)]-OH; assay: GLDH assay of transglutaminase enzyme activity after storage; assay type: biochemical; conditions: as measured by GLDH assay
Method: A further experiment was performed to determine the activity of KalbTG enzymes prepared from two different constructs, and stored at two different temperatures. The KalbTGt3 (SEQ ID NO:10) and KalbTGt1 (SEQ ID NO: 12) enzymes tested were obtained respectively from the EcSlyD2-Xa-KalbTGt3-8×His-tag construct (SEQ ID NO:8) and the EcSlyD2-Xa-KalbTGt1-8×His-tag construct (SEQ ID NO:11) described in Example 3. The activity of the two KalbTG enzymes was tested after storage at either 4° C. or −20° C. and compared against the activity of commercially available S. mobaraensis MTG according to a published protocol (Oteng-Pabi, et al., 2013. Analytical biochemistry 441(2): 169-173). In particular, assays were performed at 37° C. in 200 μl total volume. The assay mixture included 200 mM MOPS, 1 mM EDTA, and 1 mM DTT at pH 7.4. Further, α-ketoglutarate and NADH were added at a concentration of 500 μM, along with 2 U/ml GLDH, and between 0.1 μg and 1.0 μg of one of the transglutaminase enzymes. The glutamine substrate was 200 μM Z-[[…] (SEQ ID NO:75)]-OH, and the amine donor was 10 mM cadaverine, where Z represents a carboxybenzyl group. All data were collected in triplicate (average of 3 wells in a microtiter plate) and baseline activity (buffer without enzyme) subtracted.

KalbTG = assay: Cy3 labeling of Q-tagged SlyD/FKBP scaffold, SDS-PAGE; assay type: biochemical, Kutzneria albida
Excerpt: Next, the array and in-solution data were applied to perform site-specific labeling on protein substrates. The molecular chaperone SlyD is a useful scaffold for labeling approaches as epitope-containing loops can be grafted onto the FKBP domain for presentation to binders or enzymes (PCT App. Pub. No. WO 2012/150321 A1 to Andres et al.). A chimeric protein consisting of the Thermus thermophilus FKBP domain and the KalbTG recognition sequence RYRQR (SEQ ID NO:14) was produced. Labeling with a ten-fold excess of KalbTG K-tag-Cy3 and a substrate to enzyme ratio of 72:1 afforded approximately 70% yield of a labeled protein species after 15 minutes (FIG. 6A). This yield remained constant over a time-course of 60 minutes. […] The molecular weight shift from 13 kDa to 19 kDa was observed on the SDS-PAGE gel, corresponding exactly to the incorporation of a single 6 kDa label molecule. […]
as §1

## Z-[GGGYRYRQGGG (SEQ ID NO: 101)]-PEG27-[GIEGRG (SEQ ID NO: 102)]-PEG27-PEG27-[GGGDYALQGG (SEQ ID NO: 103)]-OH
[1]
  yield of dually labeled construct: nearly quantitative yield

B1: KalbTG: Kutzneria albida microbial transglutaminase (protein)
chain: MHKWFLRAAVVAAVGFGLPTLIATTAQAAAVAAPTPRAPLAPPLAEDRSYRTWRVEDYVEAWERYHGREMTEDERENLARGCIGVTVVNLNREDLSNPPLNLSFGSLRTAEAVQAALNKIVDTHPSPAQYEAAVAKDPILKRLKNVVKALPSWIDSAKLKASIFSKRFYSWQNPDWSEERAHTTYRPDRETDQVDMSTYRYRARPGYVNFDYGWFDQDTNTWWHANHEEPRMVVYQSTLRHYSRPLQDFDEQVFTVAFAKKD
modifications: Hypothetical_transglutaminase
notes: Kutzneria albida microbial transglutaminase
[2]
  melting point (DSC): 48.9 °C
[3]
  increase in KalbTG enzymatic activity by purification process with ammonium chloride: up to 9 fold
KalbTG; 15 minute reaction, pH 6.2 to 9.0 tested
  pH of highest labeling efficiency: 7.4

B2: FKBP domain RYRQR: chimeric protein of Thermus thermophilus FKBP domain and KalbTG recognition sequence RYRQR (protein)
chain: MKVGQDKVVTIRYTLQVEGEVLDQGELSYLHGHRNLIPGLEEALEGREEGEAFQAHVPAEKAYGAGSGGGGRYRQRGGGGGSSGKDLDFQVEVVKVREATPEELLHGHAHHHHHHHH
modifications: synthetic peptide sequence - KalbTG acyl-donor sequence grafted onto the FKBP domain of SlyD; FKBP_domain; acyl-donor_tag; 8xHis_tag
KalbTG; ten-fold excess KalbTG K-tag-Cy3, substrate to enzyme ratio 72:1, after 15 minutes
  yield of labeled protein species / incorporation of label: approximately 70%
